Data on five molecules can be found in US20150252117A1 (Genentech, published 2015).

The target of experiment [1] is T1, Human Jag1-DSL-EGF1-4 (human, UniProt P78504 34-377).
T1 construct: Secreted protein from BEVS cells; also called human Jagged1; hJag1; not shown: TEV protease cleavage site and 6-His tag at the C-terminus
Put plainly: SPR (BIAcore T200), IgG1 captured, ligand as analyte, 25 C. (Surface plasmon resonance follows binding to a sensor surface in real time, without labels.)

In experiment [2] the target is T2, Murine Jag1-DSL-EGF1-4 (mouse, UniProt Q9QXX0 34-377).
T2 construct: also called murine Jagged1; mouse Jagged1
Described as above.

For experiment [3], the target named is T1, Human Jag1-DSL-EGF1-4. Put plainly: SPR (BIAcore-3000), IgG captured, Jag DSL-EGF1-4 as analyte, 25 C.
Experiment [4] concerns the target T3, Human Jag2-DSL-EGF1-4 (human, UniProt Q9Y219 24-388).
T3 construct: also called human Jagged2; hJag2
T3 sequence: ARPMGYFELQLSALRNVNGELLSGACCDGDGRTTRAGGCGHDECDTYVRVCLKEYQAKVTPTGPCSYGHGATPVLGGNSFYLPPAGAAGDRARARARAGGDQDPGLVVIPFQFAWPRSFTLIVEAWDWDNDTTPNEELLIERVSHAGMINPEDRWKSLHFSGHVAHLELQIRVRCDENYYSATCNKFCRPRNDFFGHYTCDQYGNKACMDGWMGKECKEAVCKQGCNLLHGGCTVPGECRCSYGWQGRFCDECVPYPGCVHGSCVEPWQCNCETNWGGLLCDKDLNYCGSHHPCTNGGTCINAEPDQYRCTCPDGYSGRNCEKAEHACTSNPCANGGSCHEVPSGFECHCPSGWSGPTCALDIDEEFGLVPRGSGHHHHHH
Put plainly: ELISA, Notch ligand coated at 1 ug/ml, serial 3-fold dilutions of IgG, anti-human Fab-peroxidase, A630 [left panel, A-2]. On the technique in general: ELISA stands for enzyme-linked immunosorbent assay.

The target of experiment [5] is T4, Murine Jag2-DSL-EGF1-4 (mouse, UniProt Q9QYE5 27-388).
T4 construct: also called murine Jagged2; Mouse Jag2
T4 sequence: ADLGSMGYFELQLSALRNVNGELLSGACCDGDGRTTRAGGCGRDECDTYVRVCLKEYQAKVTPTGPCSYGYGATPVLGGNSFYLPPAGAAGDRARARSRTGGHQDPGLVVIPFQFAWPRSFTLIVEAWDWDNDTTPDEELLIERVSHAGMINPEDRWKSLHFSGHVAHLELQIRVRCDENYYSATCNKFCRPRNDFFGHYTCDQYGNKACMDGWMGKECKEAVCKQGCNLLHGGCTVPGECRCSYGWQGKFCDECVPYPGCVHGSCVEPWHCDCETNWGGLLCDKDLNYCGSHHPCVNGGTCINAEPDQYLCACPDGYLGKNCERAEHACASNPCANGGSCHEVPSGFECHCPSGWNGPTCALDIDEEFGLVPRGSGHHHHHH
The experiment is described as above.

In experiment [6] the target is T5, human Delta-like 1 (DSL-EGF1-4 fragment) (human, UniProt O00548 18-368, limits assumed).
T5 construct: domain: DSL-EGF1-4; Recombinant purified Notch ligand; also called human DLL1; hDLL1
T5 sequence (looked up): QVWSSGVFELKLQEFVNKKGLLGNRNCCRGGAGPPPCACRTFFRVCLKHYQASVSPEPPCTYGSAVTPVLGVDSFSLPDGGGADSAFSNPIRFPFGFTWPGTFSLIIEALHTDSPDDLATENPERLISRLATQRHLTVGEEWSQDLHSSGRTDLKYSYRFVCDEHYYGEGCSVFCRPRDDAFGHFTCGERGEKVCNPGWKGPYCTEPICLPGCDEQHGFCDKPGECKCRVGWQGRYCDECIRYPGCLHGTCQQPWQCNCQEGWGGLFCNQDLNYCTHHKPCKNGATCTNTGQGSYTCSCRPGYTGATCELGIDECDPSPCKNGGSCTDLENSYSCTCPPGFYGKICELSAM
The description is as above.

Experiment [7] has as its target T6, murine Delta-like 1 (DSL-EGF1-4 fragment) (mouse, UniProt Q61483 18-367, limits assumed).
T6 construct: domain: DSL-EGF1-4; Recombinant purified Notch ligand; also called murine DLL1; mouse DLL1
The description is as above.

In experiment [8] the target is T7, human Delta-like 4 (DSL-EGF1-4 fragment) (human, UniProt Q9NR61 27-365, limits assumed).
T7 construct: domain: DSL-EGF1-4; Recombinant purified Notch ligand; also called human DLL4; hDLL4
The experiment is described as above.

In experiment [9] the target is T8, murine Delta-like 4 (DSL-EGF1-4 fragment) (mouse, UniProt Q9JI71 27-366, limits assumed).
T8 construct: domain: DSL-EGF1-4; Recombinant purified Notch ligand; also called murine DLL4; mouse DLL4
Described as above.

The target of experiment [10] is T1, Human Jag1-DSL-EGF1-4. Description: ELISA on human Jagged1 (Jag-1 bars), OD450 nm.
The target in experiment [11] is T2, Murine Jag1-DSL-EGF1-4. Description: SPR (BIAcore-3000), IgG captured, Jag DSL-EGF1-4 as analyte.
Experiment [12] concerns the target T3, Human Jag2-DSL-EGF1-4. Put plainly: SPR (BIAcore-3000), IgG captured, Jag DSL-EGF1-4 as analyte, 25 C.
In experiment [13] the target is T4, Murine Jag2-DSL-EGF1-4. The experiment is described as above.
The target in experiment [14] is T9, purified Jag1 extracellular domain protein fragment (Homo sapiens (Human), UniProt P78504 34-377).
T9 construct: not shown: C-terminal TEV protease cleavage site and 6-His tag of the human Jag1-DSL-EGF1-4 antigen
Description: BIAcore (SPR), purified Jag1 extracellular domain fragment.

Experiment [15] deals with T7, human Delta-like 4 (DSL-EGF1-4 fragment). Description: SPR (BIAcore T200), IgG1 captured, ligand as analyte.
The target in experiment [16] is T8, murine Delta-like 4 (DSL-EGF1-4 …). The experiment is described as above.
For experiment [17], the target named is T3, Human Jag2-DSL-EGF1-4. Put plainly: SPR (BIAcore T200), IgG1 captured, ligand as analyte, 25 C.
Experiment [18] has as its target T4, Murine Jag2-DSL-EGF1-4. The experiment is described as above.
For experiment [19], the target named is T5, human Delta-like 1 (DSL-EGF1-4 fragment). Description: SPR (BIAcore T200), IgG1 captured, ligand as analyte; value marked * (asterisk not explained).
The target in experiment [20] is T6, murine Delta-like 1 (DSL-EGF1-4 …). Described as above.

B1: Antibody A-2 (antibody, human IgG1, V domains shown)
VH: EVQLVESGGGLVQPGGSLRLSCAASGFTFSNYGIHWVRQAPGKGLEWVGWITGNGGYSDYADSVKGRFTISADTSKNTAYLQMNSLRAEDTAVYYCARAGSWFAYWGQGTLVTVSS
VL: DIQMTQSPSSLSASVGDRVTITCRASQDVSTAVAWYQQKPGKAPKLLIYSASFLYSGVPSRFSGSGSGTDFTLTISSLQPEDFATYYCQQSYTTPPTFGQGTKVEIK
notes: also called anti-Jagged1 antibody A-2
By Kd is commonly meant the constant that tells how readily two partners part at equilibrium. A low value points to tighter binding. As usually defined, the koff is the first-order rate constant of dissociation. Lower therefore signals slow dissociation. One may read the kon as the rate constant with which the complex forms. The low end stands for slower complex formation, the high end for faster complex formation. B1: the Kd came to 0.382 nM with Human Jag1-DSL-EGF1-4 [1], 0.15 nM in the experiment with Murine Jag1-DSL-EGF1-4 [2] and 0.3 nM with Human Jag1-DSL-EGF1-4 [3]. Also, the koff with Human Jag1-DSL-EGF1-4 [1] turned out to be 9.23e-05 s⁻¹; with Murine Jag1-DSL-EGF1-4 [2], 5.77e-05 s⁻¹; with Human Jag1-DSL-EGF1-4 [3] it was 7.1e-05 s⁻¹. The kon is 242000 M⁻¹ s⁻¹ with Human Jag1-DSL-EGF1-4 [1], 385000 M⁻¹ s⁻¹ with Murine Jag1-DSL-EGF1-4 [2] and 230000 M⁻¹ s⁻¹ with Human Jag1-DSL-EGF1-4 [3]. The binding result (with Human Jag2-DSL-EGF1-4 [4]; with Murine Jag2-DSL-EGF1-4 [5]; in experiment [6]; in experiment [7]; in [8]; in experiment [9]) was “no binding” in each case.

B2: Antibody B (antibody, V domains shown)
VH: EVQLVESGGGLVQPGGSLRLSCAASGFTFTSYDIHWVRQAPGKGLEWVGGISPADGDTDYANSVKGRFTISADTSKNTAYLQMNSLRAEDTAVYYCARNDYDVRSVGSGMDYWGQGTLVTVSS
VL: DIQMTQSPSSLSASVGDRVTITCRASQDVSTAVAWYQQKPGKAPKLLIYSASFLYSGVPSRFSGSGSGTDFTLTISSLQPEDFATYYCQQSYTTPPTFGQGTKVEIK
notes: Anti-Jagged2 antibody, human IgG1; also called parental antibody of antibody B-3
Take B2: the binding result in the experiment with Human Jag1-DSL-EGF1-4 [10] and with Murine Jag1-DSL-EGF1-4 [11] was “no binding” in each case. Besides, the Kd with Human Jag2-DSL-EGF1-4 [12] and with Murine Jag2-DSL-EGF1-4 [13] was 1 nM in each case. For the same molecule, the koff in the experiment with Human Jag2-DSL-EGF1-4 [12] and with Murine Jag2-DSL-EGF1-4 [13] was 0.0026 s⁻¹ throughout. Also, the kon in the experiment with Human Jag2-DSL-EGF1-4 [12] and in the experiment with Murine Jag2-DSL-EGF1-4 [13] was 2.5e+06 M⁻¹ s⁻¹ in each case.

B3: Antibody A-1 S101A (antibody, V domains shown)
VH: EVQLVESGGGLVQPGGSLRLSCAASGFTFSNYGIHWVRQAPGKGLEWVGWITPDGGYTDYADSVKGRFTISADTSKNTAYLQMNSLRAEDTAVYYCARAGALFAYWGQGTLVTVSS
VL: DIQMTQSPSSLSASVGDRVTITCRASQDVSTAVAWYQQKPGKAPKLLIYSASFLYSGVPSRFSGSGSGTDFTLTISSLQPEDFATYYCQQYYTTATTFGQGTKVEIK
notes: Mutant of A-1 expressed in mammalian cells; also called A-1 G100, S101A
Consider B3, for which, in [14], binding was put at a Kd of 4.62 nM, the koff is 0.000675 s⁻¹ and the on-rate (kon) was determined as 146000 M⁻¹ s⁻¹.

B4: Antibody A-1 (antibody, human IgG1, kappa, V domains shown)
VH: EVQLVESGGGLVQPGGSLRLSCAASGFTFSNYGIHWVRQAPGKGLEWVGWITPDGGYTDYADSVKGRFTISADTSKNTAYLQMNSLRAEDTAVYYCARAGSLFAYWGQGTLVTVSS
VL: DIQMTQSPSSLSASVGDRVTITCRASQDVSTAVAWYQQKPGKAPKLLIYSASFLYSGVPSRFSGSGSGTDFTLTISSLQPEDFATYYCQQYYTTATTFGQGTKVEIKR
B4 came in with a Kd in experiment [14] of 0.799 nM.

B5: Antibody B-3 (antibody, human IgG1, V domains shown)
VH: EVQLVESGGGLVQPGGSLRLSCAASGFTFTSYDIHWVRQAPGKGLEWVGGISPADGDTDYANSVKGRFTISADTSKNTAYLQMNSLRAEDTAVYYCARNDYDVRFVGSGMDYWGQGTLVTVSS
VL: DIQMTQSPSSLSASVGDRVTITCRASQDVSTAVAWYQQKPGKAPKLLIYSASFLYSGVPSRFSGSGSGTDFTLTISSLQPEDFATYYCQQSFTAPPTFGQGTKVEIK
notes: also called anti-Jagged2 antibody B-3; anti-Jag2 B-3
Regarding B5, the binding result in experiment [15] and in experiment [16] was “no binding” in each case. Also, the Kd in the experiment with Human Jag2-DSL-EGF1-4 [17] came to 0.041 nM; with Murine Jag2-DSL-EGF1-4 [18], 0.0571 nM; in the experiment with Murine Jag2-DSL-EGF1-4 [13], 0.3 nM; in experiment [19] it was 349 nM; in experiment [20], 72.3 nM. For the same molecule, the koff with Human Jag2-DSL-EGF1-4 [17] came to 0.000188 s⁻¹; with Murine Jag2-DSL-EGF1-4 [18], 4.4e-05 s⁻¹; with Murine Jag2-DSL-EGF1-4 [13], 0.000175 s⁻¹. The kon in the experiment with Human Jag2-DSL-EGF1-4 [17] is 4.58e+06 M⁻¹ s⁻¹; in the experiment with Murine Jag2-DSL-EGF1-4 [18] it was 771000 M⁻¹ s⁻¹; in the experiment with Murine Jag2-DSL-EGF1-4 [13], 580000 M⁻¹ s⁻¹.
